T1: human BMPR1B coated on MSD plates (construct not stated) (human, UniProt O00238 14-126, limits assumed)
T1 construct: also called BMPR1B receptor
T1 sequence: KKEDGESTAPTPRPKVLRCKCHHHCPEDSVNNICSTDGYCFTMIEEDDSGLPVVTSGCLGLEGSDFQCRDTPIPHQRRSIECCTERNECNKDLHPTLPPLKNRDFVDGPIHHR

T2: hBMPR1B-His (human BMPR1B extracellular domain, residues K14 to R126, with C-terminal 9x-Histidine tag) (human, UniProt O00238 14-126)
T2 construct: Residues K14-R126 are counted on the hBMPR1B ORF (NM_001203); The IgK signal peptide of the vector is left out; also called hBMPR1B-CHis; human BMPR1B-his
T2 sequence: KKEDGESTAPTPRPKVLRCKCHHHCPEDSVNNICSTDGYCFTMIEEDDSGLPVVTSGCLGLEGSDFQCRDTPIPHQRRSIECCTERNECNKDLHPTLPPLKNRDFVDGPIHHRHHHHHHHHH

T3: rat-his
T3 construct: soluble analyte of the Biacore runs; also called rSCRx91-his; rBMPR1B-CHis
T3 chain: T2 sequence with P12A, L51T, N102D, R113K

B1: SC91.138 (antibody, V domains shown)
VH: QVQLQQPGAELVMPGASVKLSCKASGYTFTNYWMHWVKQRPGQGLEWIGEIDPSDVYTTYNQKFKDKATLTVDKSSSTAYMQLINLTSEDSAVYYCARSGWDYFDYWGQGTALTVSS
VL: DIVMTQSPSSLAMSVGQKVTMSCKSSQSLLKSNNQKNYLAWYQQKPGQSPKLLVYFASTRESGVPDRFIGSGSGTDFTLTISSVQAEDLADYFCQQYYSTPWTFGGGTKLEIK
B2: SC91.129 (antibody, V domains shown)
VH: QVQLQQPGAELVKPGASVKLSCKASGYTFTNYWMQWVKQRPGQGLEWIGEIDPSDRYTLYNQKFKDKATLTVDTSSSTAYMQLSSLTSEDSAVYYCARFGYYVDYWGQGTTLTVSS
VL: DAVMTQSPLSLPVSLGDQASISCRSSQSLVHSTGNTYLHWYLQKPGQSPKLLIYKVSNRFSGVPDRFSGSGSGTDFTLKISRVEAEDLGVYFCSQTTHVPFTFGSGTKLEIK
notes: copies: 2 + 2
B3: SC91.187 (antibody, V domains shown)
VH: B2 VH with A9P, L11F, N31S, M34V, R56N, K63N, D66G, Y101F
VL: B2 VL with A2V, S7T, D17E, T96S
B4: SC91.172 (antibody, V domains shown)
VH: B2 VH with E10D, A16T, N31S, R56T, L59M, D66G
VL: B2 VL with A2V, S7T, P45A, T96S
B5: SC91.149 (antibody, V domains shown)
VH: B2 VH with Q5L, A16S, L20V, R56T, D66G
VL: B2 VL with A2V, S7T, L38F, K50E, S68R, T96S
B6: SC91.146 (antibody, V domains shown)
VH: QVQLQQPGAELVKPGASVKLSCKASGYTFTSYWMHWVKQRPGQGLEWIGDIDPSDRYTNYNQKFKGKATLTVDTTSSTAYMQLSSLTSEDSAVYYCAISGWDYFDYWGQGTTLTVSS
VL: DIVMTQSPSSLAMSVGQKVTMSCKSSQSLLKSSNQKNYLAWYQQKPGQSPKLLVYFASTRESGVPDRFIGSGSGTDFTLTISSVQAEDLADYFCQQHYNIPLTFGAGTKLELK
B7: SC91.160 (antibody, V domains shown)
VH: QIQLVQSGPELKKPGETVKISCKASGYTFTTYGMNWVKQAPGKGLKWMGWINTYSGVPSSADDFKGRFAFSLETSASTAYLLINNLKNEDTATYFCARSELRNWYFDVWGTGTTVTVSS
VL: SFVMTQTPKFLLVSAGDRVTITCKASQNMGHDVAWYQQKPGQSPKLLIYSASNRYTGVPDRFTGSGYGTDFTFTISTVQAEDLAVYFCQQDYSSPFTFGSGTKLEMK
B8: SC91.111 (antibody, V domains shown)
VH: B7 VH with F29L, S59A, S60Y, L82Q, L86F
VL: B7 VL with D32N, S50Y, M106I
notes: copies: 2 + 2
B9: SC91.155 (antibody, V domains shown)
VH: B7 VH with T53S, S59A, S60Y, S75F, L82Q, K87R, N88D
VL: B7 VL with M29L, H31N, K45R, S50F, M106I
B10: SC91.119 (antibody, V domains shown)
VH: QVTLKESGPGILQPSQTLSLTCSFSGLSLSTPGMSVGWIRQPSGKGLEWLAHIWWNDDKSYNPALKSRLTISKDTSNNQVFLKIASVVTADTATYYCARGDRFAYWGQGTLVTVSA
VL: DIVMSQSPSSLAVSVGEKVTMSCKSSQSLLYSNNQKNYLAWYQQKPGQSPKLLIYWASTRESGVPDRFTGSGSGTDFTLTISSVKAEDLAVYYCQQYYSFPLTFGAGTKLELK

Where a chain is given by its changes, count along the chain named.

T5 sequence (chain, as listed by the source): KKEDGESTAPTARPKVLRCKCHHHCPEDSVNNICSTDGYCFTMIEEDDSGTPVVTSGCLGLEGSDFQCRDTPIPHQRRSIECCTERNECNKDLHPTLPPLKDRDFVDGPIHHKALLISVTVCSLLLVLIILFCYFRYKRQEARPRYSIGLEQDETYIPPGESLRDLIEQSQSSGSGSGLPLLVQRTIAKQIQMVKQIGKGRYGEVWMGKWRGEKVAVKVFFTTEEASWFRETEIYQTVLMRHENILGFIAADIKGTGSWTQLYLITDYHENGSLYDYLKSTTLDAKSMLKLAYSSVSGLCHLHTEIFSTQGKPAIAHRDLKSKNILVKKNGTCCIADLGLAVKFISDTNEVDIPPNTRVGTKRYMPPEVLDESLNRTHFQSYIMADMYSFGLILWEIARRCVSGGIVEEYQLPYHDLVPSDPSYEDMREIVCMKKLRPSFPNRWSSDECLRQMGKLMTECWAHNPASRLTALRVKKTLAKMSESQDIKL

One experiment has as its target T4, cynomolgus BMPR1B overexpressed on the surface of HEK293T cells (N-terminal Asp-Lys epitope tag, … (cynomolgus)). In words: cell-based or functional assay.
Turning to B1, the “% live, Fab-saporin, 250pM” value worked out at 17.6%.
Turning to B2, the “% live, Fab-saporin, 250pM” value worked out at 18.5%.
The same measure, in the same setting: in the case of B3 it was 24.2%; in that of B4, 18%; in that of B5, 20.7%.
For B6, the “% live, Fab-saporin, 250pM” value stood at 25.4%.
In the case of B7, the “% live, Fab-saporin, 250pM” value was 34.6%.
On the same count and under the same terms, in the case of B8 it was 52.9%; in that of B9, 45.1%; in that of B10, 34.7%.

The next experiment addresses T5, rat BMPR1B overexpressed on the surface of HEK293T cells (N-terminal Asp-Lys epitope tag, … (rat, UniProt A0A8I6A0G0 62-550)). In words: cell-based or functional assay.
For the molecule B1, the “% live, Fab-saporin, 250pM” value stood at 37.3%.
Turning to B2, the “% live, Fab-saporin, 250pM” value was 39.2%.
Consider B3, for which the “% live, Fab-saporin, 250pM” value was 36.7%.
As for B4, the “% live, Fab-saporin, 250pM” value was 34.1%.
Still for that read-out and setting: then B5, with 29.1%; and B6, with 38.8%; and B7, with 77.9%.
On to B8, for which the “% live, Fab-saporin, 250pM” value amounted to 87.1%.
As to B9, the “% live, Fab-saporin, 250pM” value amounted to 81.1%.
As for B10, the “% live, Fab-saporin, 250pM” value is 40.8%.

In another experiment the target is T6, human BMPR1B overexpressed on the surface of HEK293T cells (N-terminal Asp-Lys epitope tag, … (human, UniProt O00238 14-502)). The experiment is described as follows: cell-based or functional assay.
Turning to B1, the “% live, Fab-saporin, 250pM” value worked out at 21%.
In the case of B2, the “% live, Fab-saporin, 250pM” value turned out to be 23.1%.
In the case of B3, the “% live, Fab-saporin, 250pM” value was 19.1%.
For B4, the “% live, Fab-saporin, 250pM” value was determined as 19.6%.
As to B5, the “% live, Fab-saporin, 250pM” value worked out at 18.3%.
On to B6, for which the “% live, Fab-saporin, 250pM” value was 20.5%.
On the same count and under the same terms, in the case of B7 it was 24.3%; in that of B8, 20.3%; in that of B9, 29.3%.
Still for that read-out and setting: then B10, with 24.9%.

Another experiment concerns the target T1, human BMPR1B coated on MSD plates …. In words: MSD ELISA, BMP2 blocked. Also on record: concentration or dose not given beside the values. (In general: An ELISA detects its analyte on a solid surface through an enzyme-linked reagent.)
As for B1, the % inhibition (as a rule, the change of the read-out against control, counted positive when it falls) turned out to be 10%.
For the molecule B2, the “% inhibition” value was determined as 40%.
On the same count and under the same terms, in the case of B3 it was 37%; in that of B4, 51%; in that of B5, 47%.
Consider B6, for which the “% inhibition” value worked out at 29%.
Same read-out and setting: then B7, with 47%.
Regarding B8, the “% inhibition” value was found to be 36%.
Take B9: the “% inhibition” value turned out to be 49%.
In the case of B10, the “% inhibition” value stood at 35%.

Another experiment has the same target. The experiment is described as follows: MSD ELISA, BMP4 blocked. Also on record: concentration or dose not given beside the values.
In the case of B1, the “% inhibition” value worked out at 79%.
Consider B2, for which the “% inhibition” value is 83%.
Consider B3, for which the “% inhibition” value was found to be 83%.
Consider B4, for which the “% inhibition” value was found to be 81%.
On the same count and under the same terms, in the case of B5 it was 84%; in that of B6, 79%.
In the case of B7, the “% inhibition” value stood at 79%.
Still for that read-out and setting: in the case of B8 it was 69%; in that of B9, 79%; in that of B10, 65%.

For the next experiment, the target named is T2, hBMPR1B-His (human BMPR1B extracellular …). The experiment is described as follows: Biacore. On the technique in general: Surface plasmon resonance follows binding to a sensor surface in real time, without labels.
As for B1, the equilibrium dissociation constant (Kd) (commonly the equilibrium constant for the complex coming apart) was 0.658 nM.
With B2, the Kd stood at 0.564 nM.
Regarding B3, the Kd was 2.86 nM.
For the molecule B4, the equilibrium dissociation constant (Kd) came out at 1.96 nM.
In turn, B5 yielded a Kd of 1.03 nM.
B6 had a Kd of 1.21 nM.
Turning to B7, the affinity, expressed as Kd, was 3.12 nM.
Molecule B8 showed a Kd of 6.67 nM.
Molecule B9 registered a Kd of 1.12 nM.
B10 displayed a dissociation constant Kd of 6.44 nM.

A further experiment has as its target T7, Cyno-his (cynomolgus).
T7 construct: extracellular domain; soluble analyte of the Biacore runs; also called cSCRx91-his; cBMPR1B-CHis
In words: Biacore.
The molecule B1 gave a Kd of 0.937 nM.
Still for that read-out and setting: then B2, with 1.62 nM; and B3, with 5.58 nM.
On to B4, for which the Kd was found to be 4.47 nM.
On to B5, for which the Kd turned out to be 2 nM.
Take B6: the Kd is below 0.1 nM.
For the molecule B7, binding was put at a Kd of 38.8 nM.
In turn, B10 yielded a Kd of 5.52 nM.

Another experiment concerns the target T3, rat-his. The experiment is described as follows: Biacore.
Take B1: the Kd turned out to be 1.84 nM.
Regarding B2, the Kd was 0.561 nM.
For the molecule B3, binding was characterised by a dissociation constant (Kd) of 3.25 nM.
As to B4, the Kd was found to be 1.18 nM.
For B5, the equilibrium dissociation constant (Kd) is below 0.1 nM.
With B6, the Kd is below 2 nM.
With B7, the binding result was “binds”.
Same read-out and setting: in the case of B9 it was “binds”.
For the molecule B10, the Kd was 5.35 nM.

The target of the next experiment is T4, cynomolgus BMPR1B overexpressed on the …. In words: flow cytometry.
As to B1, the gMFI turned out to be 16000.
Take B2: the gMFI is 16000.
In turn, B3 yielded a gMFI of 14800.
For B4, the gMFI came out at 15000.
With B5, the gMFI is 15400.
In turn, B6 came in with a gMFI of 10900.
On to B7, for which the gMFI is 15800.
In turn, B8 came in with a gMFI of 9120.
Still for that read-out and setting: in the case of B9 it was 14600; in that of B10, 11500.

The target in another experiment is T5, rat BMPR1B overexpressed on the surface …. The experiment is described as follows: flow cytometry. Background: Flow cytometry measures light scatter and fluorescence of single cells or particles in a stream.
B1 gave a gMFI of 9660.
B2 yielded a gMFI of 10200.
On the same count and under the same terms, then B3, with 9680.
In turn, B4 yielded a gMFI of 9510.
Molecule B5 showed a gMFI of 10600.
In turn, B6 showed a gMFI of 6220.
The molecule B8 registered a gMFI of 3810.
B9 gave a gMFI of 7690.
Take B10: the gMFI stood at 7510.

A further experiment has as its target T6, human BMPR1B overexpressed on the …. The experiment is described as follows: flow cytometry.
Regarding B1, the gMFI came out at 24500.
B2 registered a gMFI of 26900.
In turn, B3 came in with a gMFI of 25900.
Molecule B4 registered a gMFI of 24000.
Consider B5, for which the gMFI is 27000.
For the molecule B6, the gMFI came out at 15800.
For the molecule B7, the gMFI turned out to be 27000.
Take B8: the gMFI amounted to 25200.
Consider B9, for which the gMFI was found to be 25300.
B10 gave a gMFI of 17300.

These data come from patent US20190153103A1 (AbbVie / Abbott, published 2019).
